US20250250357A1 (NANJING ZAIMING PHARMACEUTICAL, published 2025)

Assays:
[1] = biological target: T1, human MSLN-FL-his protein (human, UniProt Q13421 296-580); test: competitive ELISA; row Tab106
T1 construct: made in HEK293E cells, purified on nickel column; also called hMSLN-FL-his; human MSLN full-length protein; not shown: His tag
T1 sequence (Q13421 other isoform, or with tags, fused parts or gaps): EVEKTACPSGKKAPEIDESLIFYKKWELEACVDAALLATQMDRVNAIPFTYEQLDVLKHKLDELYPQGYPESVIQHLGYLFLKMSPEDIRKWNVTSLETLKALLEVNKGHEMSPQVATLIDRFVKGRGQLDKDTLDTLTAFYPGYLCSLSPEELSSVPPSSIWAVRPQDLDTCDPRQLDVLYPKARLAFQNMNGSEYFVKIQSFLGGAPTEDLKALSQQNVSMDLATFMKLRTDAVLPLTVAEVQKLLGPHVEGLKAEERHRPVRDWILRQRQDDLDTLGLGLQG

[2] = biological target: T1, human MSLN-FL-his protein; test: competitive ELISA; row F6-76.1
Procedure: (§1) In order to identify antigen-binding sites of antibodies, MSLN chimeric antibodies were grouped using competitive ELISA.
(§2) The chimeric antibodies were diluted to 2 μg/mL with PBS and allowed to coat 96-well high-adsorption ELISA plates at 50 μL/well. After the plates were coated at 4° C. overnight, 250 μL of a blocking buffer (PBS containing 2% (w/w) BSA) was added for two hours of blocking at room temperature. 40 μg/mL of the antibodies to be tested were added, and then the human MSLN-FL-His protein with an EC₈₀ concentration corresponding to each of the antibodies to be tested was added for incubation for 2 h. The plates were washed 5 times with PBS, an HRP-labeled anti-His secondary antibody (purchased from Genescript, Cat. No. A00612) was then added for incubation for 1 h, and the plates were washed 5 times again. A TMB substrate was added at 50 μL/well, and after 10 minutes of incubation at room temperature, a stop solution (1.0 M HCl) was added at 50 μL/well. OD₄₅₀ nm values were read using an ELISA plate reader (Insight, purchased from PerkinElmer), and the competition rate between the antibodies was calculated according to the OD₄₅₀ nm values using a formula.

[3] = biological target: T1, human MSLN-FL-his protein; test: competitive ELISA; row F3-63.5
Procedure: as §1, §2

[4] = biological target: T1, human MSLN-FL-his protein; test: competitive ELISA; row F2-56.12
Procedure: as §1, §2

[5] = biological target: T1, human MSLN-FL-his protein; test: SPR (Biacore), antibody captured on Protein A chip;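 also: measured at 25 °C, analyte injected 240 s in five twofold dilutions from 200 nM, dissociation up to 600 s, double-referenced, fitted with Langmuir 1:1 model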
Procedure: The flow cell was set at 25° C. The sample block was set at 16° C. Both were pretreated with the running buffer. In each cycle, first, the antibody to be tested was captured using the Protein A chip, and then a single concentration of human MSLN-FL-his protein was injected. […] The association was determined by injecting different concentrations of human MSLN-FL-his in solution for 240 s on end, wherein the flow rate was 30 μL/min, and the protein was diluted in a 1:1 dilution ratio from 200 nM (see detailed results for actual concentrations tested) to obtain 5 concentrations in total. The dissociation phase was monitored for up to 600 s and triggered by switching from the sample solution to the running buffer. The surface was regenerated by washing with 10 mM glycine solution (pH 1.5) at a flow rate of 30 μL/min for 30 s. The difference in bulk refractive index was corrected by subtracting the responses obtained from the goat anti-human Fc surface. Blank injections were also subtracted (=double reference). To calculate the apparent KD and other kinetic parameters, the Langmuir 1:1 model was used.

[6] = biological target: T1, human MSLN-FL-his protein; test: competitive ELISA; row Tab142
Procedure: as §1, §2

[7] = biological target: T1, human MSLN-FL-his protein; test: competitive ELISA; row F4-94.15
Procedure: as §1, §2

[8] = biological target: T1, human MSLN-FL-his protein; test: competitive ELISA; row F6-62.5
Procedure: as §1, §2

[9] = biological target: T2, human MSLN-R2-his protein (human, UniProt Q13421 391-486); test: ELISA, coated antigen; no antibody (blank, column 'none')
T2 construct: also called human MSLN-R2 protein; hMSLN-R2-his; not shown: His tag
T2 sequence (Q13421 other isoform, or with tags, fused parts or gaps): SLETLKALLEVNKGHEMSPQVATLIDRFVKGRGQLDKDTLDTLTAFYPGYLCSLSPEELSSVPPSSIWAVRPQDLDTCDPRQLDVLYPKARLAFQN

[10] = biological target: T2, human MSLN-R2-his protein; test: ELISA, coated antigen; antibody 0.0001 nM
Procedure: (§3) The plate was sealed with a plastic film and incubated at 4° C. overnight. The next day, the plate was washed twice with PBST, and a blocking buffer [PBS+2% (w/w) BSA] was added for blocking at room temperature for 2 h. The blocking buffer was discarded, and a chimeric antibody or negative control antibody serially diluted from 100 nM was added at 50 μL/well. After incubation at 37° C. for 2 h, the plate was washed 3 times with PBST. […] After incubation at 37° C. for 2 h, the plate was washed 5 times with PBST. A TMB substrate was added at 50 μL/well for incubation at room temperature for 5-10 min, and then a stop solution (1.0 N HCl) was added at 50 μL/well.

[11] = biological target: T2, human MSLN-R2-his protein; test: ELISA, coated antigen; antibody 0.01 nM
Procedure: as §3

[12] = biological target: T2, human MSLN-R2-his protein; test: ELISA, coated antigen; antibody 0.001 nM
Procedure: as §3

[13] = biological target: T2, human MSLN-R2-his protein; test: ELISA, coated antigen; antibody 100 nM
Procedure: as §3

[14] = biological target: T2, human MSLN-R2-his protein; test: ELISA, coated antigen; antibody 1 nM
Procedure: as §3

[15] = biological target: T2, human MSLN-R2-his protein; test: ELISA, coated antigen; antibody 10 nM
Procedure: as §3

[16] = biological target: T2, human MSLN-R2-his protein; test: ELISA, coated antigen; antibody 0.1 nM
Procedure: as §3

[17] = biological target: T3, human MSLN-R3-his protein (human, UniProt Q13421 487-598); test: ELISA, coated antigen, antibody 0.0001 nM
T3 construct: Made in HEK293E cells, purified on nickel column; also called hMSLN-R3-his; human MSLN-R3 protein; not shown: His tag
T3 sequence (Q13421 495-606): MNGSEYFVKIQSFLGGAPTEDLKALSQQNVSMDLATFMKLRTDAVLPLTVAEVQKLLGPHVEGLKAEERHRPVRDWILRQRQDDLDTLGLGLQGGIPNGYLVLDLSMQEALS

[18] = biological target: T3, human MSLN-R3-his protein; test: ELISA, coated antigen, antibody 0.1 nM
Procedure: as §3

[19] = biological target: T3, human MSLN-R3-his protein; test: ELISA, coated antigen, antibody 100 nM
Procedure: as §3

[20] = biological target: T3, human MSLN-R3-his protein; test: ELISA, coated antigen, antibody 0.01 nM
Procedure: as §3

[21] = biological target: T3, human MSLN-R3-his protein; test: ELISA, coated antigen, antibody 1 nM
Procedure: as §3

[22] = biological target: T3, human MSLN-R3-his protein; test: ELISA, coated antigen, no antibody (blank)
Procedure: as §3

[23] = biological target: T3, human MSLN-R3-his protein; test: ELISA, coated antigen, antibody 0.001 nM
Procedure: as §3

[24] = biological target: T3, human MSLN-R3-his protein; test: ELISA, coated antigen, antibody 10 nM
Procedure: as §3

[25] = biological target: T4, human MSLN-FL-his protein (human, UniProt Q13421 296-580); test: ELISA, coated antigen; antibody 10 nM
T4 construct: also called human MSLN full-length protein; hMSLN-FL-his; not shown: His tag

[26] = biological target: T4, human MSLN-FL-his protein; test: ELISA, coated antigen; antibody 100 nM
Procedure: as §3

[27] = biological target: T4, human MSLN-FL-his protein; test: ELISA, coated antigen; antibody 0.1 nM
Procedure: as §3

[28] = biological target: T4, human MSLN-FL-his protein; test: ELISA, coated antigen; antibody 1 nM
Procedure: as §3

[29] = biological target: T4, human MSLN-FL-his protein; test: ELISA, coated antigen; antibody 0.001 nM
Procedure: as §3

[30] = biological target: T4, human MSLN-FL-his protein; test: ELISA, coated antigen; antibody 0.01 nM
Procedure: as §3

[31] = biological target: T4, human MSLN-FL-his protein; test: ELISA, coated antigen; no antibody (blank, column 'none')
Procedure: as §3

[32] = biological target: T4, human MSLN-FL-his protein; test: ELISA, coated antigen; antibody 0.0001 nM
Procedure: as §3

[33] = biological target: T5, human MSLN-R3-3 polypeptide (human); test: ELISA, coated antigen, no antibody (blank)
T5 construct: Part of region R3 of human MSLN; also called hMSLN-R3-3; human MSLN-R3-3 protein

[34] = biological target: T5, human MSLN-R3-3 polypeptide; test: ELISA, coated antigen, antibody 100 nM
Procedure: as §3

[35] = biological target: T5, human MSLN-R3-3 polypeptide; test: ELISA, coated antigen, antibody 0.0001 nM
Procedure: as §3

[36] = biological target: T5, human MSLN-R3-3 polypeptide; test: ELISA, coated antigen, antibody 0.1 nM
Procedure: as §3

[37] = biological target: T5, human MSLN-R3-3 polypeptide; test: ELISA, coated antigen, antibody 1 nM
Procedure: as §3

[38] = biological target: T5, human MSLN-R3-3 polypeptide; test: ELISA, coated antigen, antibody 0.01 nM
Procedure: as §3

[39] = biological target: T5, human MSLN-R3-3 polypeptide; test: ELISA, coated antigen, antibody 10 nM
Procedure: as §3

[40] = biological target: T5, human MSLN-R3-3 polypeptide; test: ELISA, coated antigen, antibody 0.001 nM
Procedure: as §3

Binder	competition rate [1] [%]	competition rate [2] [%]	competition rate [3] [%]	competition rate [4] [%]	Kd [5] [nM]	koff [5] [s⁻¹]	kon [5] [M⁻¹ s⁻¹]	competition rate [6] [%]	competition rate [7] [%]	competition rate [8] [%]	also measured
S009-F6-76.1 (antibody, human IgG1, kappa, V domains shown, human-murine chimeric antibody, human IgG1/kappa constant regions) VH: QVQLQQSGPELVKPGASVKISCKASGYTFTDYYINWVKQRPGQGLEWIGWIFPGRGSTFYYEKFKGKATLTVDKSSSTAYMLLSSLTSEDSAVYFCARRGDSAGYEDLDYWGQGTSVTVSS VL: NIVMTQSPKFMSMSVGERVTLSCKASENVVTYVSWYQQKPKQSPKLLIYGASKRYTGVPDRFTGSGSATDFTLTISSVQAEDLGDYHCGQSYSYPYTFGGGTKLEIKR	27	98	2	99	10.1	0.000369	36700	39	94	60	
S009-F2-56.12 (antibody, human IgG1, kappa, V domains shown, human-murine chimeric antibody, human IgG1/kappa constant regions) VH: DVQLQESGPGMVKPSQSLSLTCTVTGYSITSGYDWHWIRHFPGNKLEWMGYISYSGSTNYNPSLKSRISITHDTSKNHFFLKLKSVTTEDTATYYCARGTGPDYWGQGTTLTVSS VL: DIVMTQSQKFMSTSVGDRVSITCKASQNVRTAVAWYQQKPGQSPKALIHLPSNRHTGVPDRFTGSGSGTDFTLTISNVQSEDLADYFCLQHWNYPLTFGGGTKLEIKR	1	93	-24	97	43.1	0.00312	72400	3	87	-233	
Tab106 (YP218, hIgG1) (antibody, V domains shown, Control antibody: YP218 VH and VL recombined into human IgG1 CH and CL expression vectors; also called YP218 human IgG1 antibody) VH: QQQLEESGGGLVKPEGSLTLTCKASGFDLGFYFYACWVRQAPGKGLEWIACIYTAGSGSTYYASWAKGRFTISKASSTTVTLQMTSLAAADTATYFCARSTANTRSTYYLNLWGPGTLVTVSS VL: DVVMTQTPASVSEPVGGTVTIKCQASQRISSYLSWYQQKPGQRPKLLIFGASTLASGVPSRFKGSGSGTEYTLTISDLECADAATYYCQSYAYFDSNNWHAFGGGTEVVVRT											OD450 [9]: 0.07 OD450; OD450 [10]: 0.06 OD450; OD450 [11]: 0.06 OD450; OD450 [12]: 0.06 OD450; OD450 [13]: 2.07 OD450; OD450 [14]: 0.3 OD450; OD450 [15]: 1.39 OD450; OD450 [16]: 0.08 OD450
Tab106 (YP218, hIgG1) (antibody, V domains shown, Control: YP218 VH and VL recombined into human IgG1 CH and CL expression vectors; also called YP218 human IgG1 antibody) VH: QQQLEESGGGLVKPEGSLTLTCKASGFDLGFYFYACWVRQAPGKGLEWIACIYTAGSGSTYYASWAKGRFTISKASSTTVTLQMTSLAAADTATYFCARSTANTRSTYYLNLWGPGTLVTVSS VL: DVVMTQTPASVSEPVGGTVTIKCQASQRISSYLSWYQQKPGQRPKLLIFGASTLASGVPSRFKGSGSGTEYTLTISDLECADAATYYCQSYAYFDSNNWHAFGGGTEVVVRT											OD450 [17]: 0.05; OD450 [18]: 0.88; OD450 [19]: 1.79; OD450 [20]: 0.18; OD450 [21]: 1.57; OD450 [22]: 0.07; OD450 [23]: 0.06; OD450 [24]: 1.69
S009-F3-63.5 (antibody, human IgG1, kappa, V domains shown, human-murine chimeric antibody, human IgG1/kappa constant regions) VH: QVQLQQSGAELVRPGASVTLSCKASGYTFTDYEMHWVKQTPVHGLEWIGGIDPETGDTAYNQQFKGKAILTADRSSSTAYMELRSLTSEDSAVYYCTNYASSREDYWGQGTTLTVSS VL: not shown	15	-3	58	-77	105	0.000478	4560	2	11	-366	
S009-F6-62.5 (antibody, human IgG1, kappa, V domains shown, Human-murine chimeric antibody, human IgG1/kappa constant regions) VH: QVQLQQPGTELVKPGASVKLSCRASGYTFTAYWMHWVKQRPGQGLEWIGNINPSNGGTDFNEKFKSKATLTVDKSSSTAYMQLSSLTSEDSAVYYCARGRGYFDVWGTGTTVTVSS VL: DILLTQSPAILSVSPGERVSFSCRASKNIGTSIHWYQQRTNGSPRLLIKYASESISGIPSRFSGSGSGTDFTLNINSVESEDIADYYCQQSNSWPTLTFGAGTKLELKR											OD450 [25]: 3.11 OD450; OD450 [26]: 3.22 OD450; OD450 [27]: 2.45 OD450; OD450 [28]: 3.13 OD450; OD450 [29]: 0.27 OD450; OD450 [30]: 0.94 OD450; OD450 [31]: 0.05 OD450; OD450 [32]: 0.05 OD450
S009-F6-62.5 chimeric antibody (antibody, human IgG1, kappa, V domains shown, Human-murine chimeric antibody, human IgG1/kappa constant regions) VH: QVQLQQPGTELVKPGASVKLSCRASGYTFTAYWMHWVKQRPGQGLEWIGNINPSNGGTDFNEKFKSKATLTVDKSSSTAYMQLSSLTSEDSAVYYCARGRGYFDVWGTGTTVTVSS VL: DILLTQSPAILSVSPGERVSFSCRASKNIGTSIHWYQQRTNGSPRLLIKYASESISGIPSRFSGSGSGTDFTLNINSVESEDIADYYCQQSNSWPTLTFGAGTKLELKR											OD450 [33]: 0.05; OD450 [34]: 0.09; OD450 [35]: 0.04; OD450 [36]: 0.04; OD450 [37]: 0.05; OD450 [38]: 0.04; OD450 [39]: 0.05; OD450 [40]: 0.04
S009-F4-94.15 (antibody, human IgG1, kappa, V domains shown, human-murine chimeric antibody, human IgG1/kappa constant regions) VH: QVQLHQPGAELVRPGSSVKLSCKASGYTFTSYWVHWVQQRPRQGLEWIGNIDPSDSEIHYNQKFKDKATLTVDKSSSTAYIHLSRLTSEDSAIYYCVRGGVPWFAYWGQGTLVTVSA VL: QIVLTQSPAIMSASPGEKVTLTCSASSSVSSTYLYWFQQKPGSSPKVWIYSTSNLASGVPARFSGSGSGTSYSLTISSMEAEDAASYFCHQWISYPYTFGGGTKLEIKR	19	99	-10	101	1.2	0.000185	154000	26	100	-262	
